From article PMC4909201 (2016)
Non-standard residues stand in square brackets, D forms with d. No end group written: not given here. *: point of attachment. Biotin = O=C1N[C@H]2[C@H](CS[C@H]2CCCCC(=O)*)N1; pY = N[C@@H](Cc1ccc(OP(=O)(O)O)cc1)C(=O)O

Target: thrombin (Homo sapiens, UniProt P00734)
Assay: SPR

Question: For Biotin-DEGDTDL[pY]D[pY][pY]PEEDTEG [GpIbα269-286ppp], which Kd is on record?
Answer: 229 nM
